Reference: paper PMC3954597 (Biochemistry, 2014)
Where two headings read alike, the source gives them in different places. Square brackets hold non-standard residues; d marks the D form. pY = N[C@@H](Cc1ccc(OP(=O)(O)O)cc1)C(=O)O

T1: TCPTP (Homo sapiens, UniProt P17706)
T1 sequence (P17706 1-314): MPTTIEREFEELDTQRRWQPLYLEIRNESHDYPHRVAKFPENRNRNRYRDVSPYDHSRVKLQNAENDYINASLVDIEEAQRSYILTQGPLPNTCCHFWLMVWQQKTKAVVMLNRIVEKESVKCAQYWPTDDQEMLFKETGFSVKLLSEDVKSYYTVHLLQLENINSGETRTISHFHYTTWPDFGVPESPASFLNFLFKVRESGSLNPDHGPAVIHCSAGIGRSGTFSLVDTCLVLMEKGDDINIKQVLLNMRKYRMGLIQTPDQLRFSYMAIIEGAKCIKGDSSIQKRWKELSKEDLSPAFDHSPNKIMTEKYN

T2: SHP-2 (Homo sapiens, UniProt Q06124)
T2 sequence (Q06124 199-593): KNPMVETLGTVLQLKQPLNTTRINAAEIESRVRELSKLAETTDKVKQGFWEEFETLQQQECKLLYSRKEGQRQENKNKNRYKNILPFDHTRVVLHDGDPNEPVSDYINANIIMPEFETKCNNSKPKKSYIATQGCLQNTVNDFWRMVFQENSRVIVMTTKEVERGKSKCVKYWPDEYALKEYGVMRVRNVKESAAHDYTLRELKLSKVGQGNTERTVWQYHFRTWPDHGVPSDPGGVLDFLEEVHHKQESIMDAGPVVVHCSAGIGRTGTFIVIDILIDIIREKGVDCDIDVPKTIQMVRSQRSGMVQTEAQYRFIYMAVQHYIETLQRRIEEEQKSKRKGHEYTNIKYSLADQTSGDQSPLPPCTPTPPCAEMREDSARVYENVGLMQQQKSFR

T3: R47E PTP1B catalytic domain (amino acids 1-321) (human) (UniProt P18031)
T3 sequence: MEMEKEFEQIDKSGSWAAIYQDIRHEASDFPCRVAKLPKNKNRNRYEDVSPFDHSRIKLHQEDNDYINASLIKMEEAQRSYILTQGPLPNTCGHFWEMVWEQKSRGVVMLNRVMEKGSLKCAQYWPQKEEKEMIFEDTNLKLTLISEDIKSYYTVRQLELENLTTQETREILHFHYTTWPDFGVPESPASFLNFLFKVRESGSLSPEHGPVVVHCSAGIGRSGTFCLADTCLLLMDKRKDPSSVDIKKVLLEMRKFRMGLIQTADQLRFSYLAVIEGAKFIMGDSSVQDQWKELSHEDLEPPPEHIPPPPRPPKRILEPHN

T4: wild-type PTP1B catalytic domain (amino acids 1-321) (human) (UniProt P18031)
T4 sequence: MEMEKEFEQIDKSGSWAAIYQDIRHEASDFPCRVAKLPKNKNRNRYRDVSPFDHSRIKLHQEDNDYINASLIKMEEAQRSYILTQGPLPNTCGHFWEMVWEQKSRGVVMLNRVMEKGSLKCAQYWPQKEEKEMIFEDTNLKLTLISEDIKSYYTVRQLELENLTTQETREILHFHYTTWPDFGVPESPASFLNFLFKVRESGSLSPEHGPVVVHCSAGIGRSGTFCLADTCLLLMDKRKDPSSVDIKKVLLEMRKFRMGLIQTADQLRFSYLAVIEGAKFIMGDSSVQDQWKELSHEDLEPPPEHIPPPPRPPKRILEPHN

T5: R24M PTP1B catalytic domain (amino acids 1-321) (human) (UniProt P18031)
T5 sequence: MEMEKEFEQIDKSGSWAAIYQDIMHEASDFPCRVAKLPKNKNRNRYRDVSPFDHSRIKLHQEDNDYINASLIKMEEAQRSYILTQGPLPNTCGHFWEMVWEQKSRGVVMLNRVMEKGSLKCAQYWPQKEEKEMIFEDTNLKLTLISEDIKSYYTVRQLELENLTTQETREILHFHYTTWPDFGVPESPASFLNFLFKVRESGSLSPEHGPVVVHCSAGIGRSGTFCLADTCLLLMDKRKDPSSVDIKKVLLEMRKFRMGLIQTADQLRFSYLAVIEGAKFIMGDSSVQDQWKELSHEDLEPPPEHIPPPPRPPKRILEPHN

T6: HePTP (aa 22-335), GST fusion (human) (UniProt P35236)
T6 sequence: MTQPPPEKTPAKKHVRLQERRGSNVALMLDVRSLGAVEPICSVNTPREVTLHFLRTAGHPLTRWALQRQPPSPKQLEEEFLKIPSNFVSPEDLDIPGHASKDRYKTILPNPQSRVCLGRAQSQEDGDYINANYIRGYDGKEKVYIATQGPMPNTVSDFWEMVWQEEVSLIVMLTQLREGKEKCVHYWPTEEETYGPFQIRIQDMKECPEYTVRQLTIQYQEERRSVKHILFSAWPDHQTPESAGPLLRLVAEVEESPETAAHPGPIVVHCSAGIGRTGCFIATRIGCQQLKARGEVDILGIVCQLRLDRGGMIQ

T7: PTP-PEST catalytic domain (aa 5-300), GST fusion (human) (UniProt Q05209)
T7 sequence: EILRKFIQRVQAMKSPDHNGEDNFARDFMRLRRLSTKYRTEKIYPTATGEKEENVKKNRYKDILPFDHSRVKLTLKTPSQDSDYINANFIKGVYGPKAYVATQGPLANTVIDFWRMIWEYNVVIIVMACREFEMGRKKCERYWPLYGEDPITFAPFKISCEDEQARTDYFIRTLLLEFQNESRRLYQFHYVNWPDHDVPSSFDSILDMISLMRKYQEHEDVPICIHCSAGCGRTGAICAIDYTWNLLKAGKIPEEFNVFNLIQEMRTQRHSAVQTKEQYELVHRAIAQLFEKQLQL

B1: Ac-EEDNAWpYAA-NH2 (peptide)
peptide: Ac-EEDNAW[pY]AA-NH2
SMILES: CC(=O)N[C@@H](CCC(=O)O)C(=O)N[C@@H](CCC(=O)O)C(=O)N[C@@H](CC(=O)O)C(=O)N[C@@H](CC(N)=O)C(=O)N[C@@H](C)C(=O)N[C@@H](Cc1c[nH]c2ccccc12)C(=O)N[C@@H](Cc1ccc(OP(=O)(O)O)cc1)C(=O)N[C@@H](C)C(=O)N[C@@H](C)C(N)=O
B2: Ac-AApYAAADD-NH2 (peptide)
peptide: Ac-AA[pY]AAADD-NH2
SMILES: CC(=O)N[C@@H](C)C(=O)N[C@@H](C)C(=O)N[C@@H](Cc1ccc(OP(=O)(O)O)cc1)C(=O)N[C@@H](C)C(=O)N[C@@H](C)C(=O)N[C@@H](C)C(=O)N[C@@H](CC(=O)O)C(=O)N[C@@H](CC(=O)O)C(N)=O
B3: nephrin pY1217 peptide Ac-DPRGIpYDQVAG-NH2 (peptide)
peptide: Ac-DPRGI[pY]DQVAG-NH2
SMILES: CC[C@H](C)[C@H](NC(=O)CNC(=O)[C@H](CCCNC(=N)N)NC(=O)[C@@H]1CCCN1C(=O)[C@H](CC(=O)O)NC(C)=O)C(=O)N[C@@H](Cc1ccc(OP(=O)(O)O)cc1)C(=O)N[C@@H](CC(=O)O)C(=O)N[C@@H](CCC(N)=O)C(=O)N[C@H](C(=O)N[C@@H](C)C(=O)NCC(N)=O)C(C)C
B4: Ac-ASSDEpYAA-NH2 (peptide)
peptide: Ac-ASSDE[pY]AA-NH2
SMILES: CC(=O)N[C@@H](C)C(=O)N[C@@H](CO)C(=O)N[C@@H](CO)C(=O)N[C@@H](CC(=O)O)C(=O)N[C@@H](CCC(=O)O)C(=O)N[C@@H](Cc1ccc(OP(=O)(O)O)cc1)C(=O)N[C@@H](C)C(=O)N[C@@H](C)C(N)=O
B5: Ac-AApYDDIDE-NH2 (peptide)
peptide: Ac-AA[pY]DDIDE-NH2
SMILES: CC[C@H](C)[C@H](NC(=O)[C@H](CC(=O)O)NC(=O)[C@H](CC(=O)O)NC(=O)[C@H](Cc1ccc(OP(=O)(O)O)cc1)NC(=O)[C@H](C)NC(=O)[C@H](C)NC(C)=O)C(=O)N[C@@H](CC(=O)O)C(=O)N[C@@H](CCC(=O)O)C(N)=O
B6: Ac-AApYADDAA-NH2 (peptide)
peptide: Ac-AA[pY]ADDAA-NH2
SMILES: CC(=O)N[C@@H](C)C(=O)N[C@@H](C)C(=O)N[C@@H](Cc1ccc(OP(=O)(O)O)cc1)C(=O)N[C@@H](C)C(=O)N[C@@H](CC(=O)O)C(=O)N[C@@H](CC(=O)O)C(=O)N[C@@H](C)C(=O)N[C@@H](C)C(N)=O
B7: Ac-AApYAADDA-NH2 (peptide)
peptide: Ac-AA[pY]AADDA-NH2
SMILES: CC(=O)N[C@@H](C)C(=O)N[C@@H](C)C(=O)N[C@@H](Cc1ccc(OP(=O)(O)O)cc1)C(=O)N[C@@H](C)C(=O)N[C@@H](C)C(=O)N[C@@H](CC(=O)O)C(=O)N[C@@H](CC(=O)O)C(=O)N[C@@H](C)C(N)=O
B8: Ac-YDEDFpYDYEF-NH2 (acidic) (peptide)
peptide: Ac-YDEDF[pY]DYEF-NH2
SMILES: CC(=O)N[C@@H](Cc1ccc(O)cc1)C(=O)N[C@@H](CC(=O)O)C(=O)N[C@@H](CCC(=O)O)C(=O)N[C@@H](CC(=O)O)C(=O)N[C@@H](Cc1ccccc1)C(=O)N[C@@H](Cc1ccc(OP(=O)(O)O)cc1)C(=O)N[C@@H](CC(=O)O)C(=O)N[C@@H](Cc1ccc(O)cc1)C(=O)N[C@@H](CCC(=O)O)C(=O)N[C@@H](Cc1ccccc1)C(N)=O
B9: Ac-SASASpYSASA-NH2 (neutral) (peptide)
peptide: Ac-SASAS[pY]SASA-NH2
SMILES: CC(=O)N[C@@H](CO)C(=O)N[C@@H](C)C(=O)N[C@@H](CO)C(=O)N[C@@H](C)C(=O)N[C@@H](CO)C(=O)N[C@@H](Cc1ccc(OP(=O)(O)O)cc1)C(=O)N[C@@H](CO)C(=O)N[C@@H](C)C(=O)N[C@@H](CO)C(=O)N[C@@H](C)C(N)=O
B10: Ac-YRKRFpYRYKF-NH2 (basic) (peptide)
peptide: Ac-YRKRF[pY]RYKF-NH2
SMILES: CC(=O)N[C@@H](Cc1ccc(O)cc1)C(=O)N[C@@H](CCCNC(=N)N)C(=O)N[C@@H](CCCCN)C(=O)N[C@@H](CCCNC(=N)N)C(=O)N[C@@H](Cc1ccccc1)C(=O)N[C@@H](Cc1ccc(OP(=O)(O)O)cc1)C(=O)N[C@@H](CCCNC(=N)N)C(=O)N[C@@H](Cc1ccc(O)cc1)C(=O)N[C@@H](CCCCN)C(=O)N[C@@H](Cc1ccccc1)C(N)=O

Assays:
HePTP = details: cited from earlier work
SHP-1 = SHP-1 (Homo sapiens, UniProt P29350); details: catalytic domain; cited from earlier work
SHP-1, sequence (P29350 205-595): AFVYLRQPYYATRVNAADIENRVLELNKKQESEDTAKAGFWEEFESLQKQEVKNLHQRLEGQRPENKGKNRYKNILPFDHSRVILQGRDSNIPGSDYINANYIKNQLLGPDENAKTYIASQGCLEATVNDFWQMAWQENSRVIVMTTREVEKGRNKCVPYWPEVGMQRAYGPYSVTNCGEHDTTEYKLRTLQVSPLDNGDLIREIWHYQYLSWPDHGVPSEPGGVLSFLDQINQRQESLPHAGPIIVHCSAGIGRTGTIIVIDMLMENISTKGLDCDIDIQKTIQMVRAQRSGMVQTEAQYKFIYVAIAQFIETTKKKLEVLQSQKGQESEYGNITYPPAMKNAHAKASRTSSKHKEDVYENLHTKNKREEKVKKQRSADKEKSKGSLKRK

TCPTP = target: T1, TCPTP; assay: PTP assay, TCPTP; format: biochemical; details: catalytic domain; 100 mM HEPES pH 7.4; monitored at 282 nm
SHP-2 = target: T2, SHP-2; details: catalytic domain; cited from earlier work
[1] = target: T3, R47E PTP1B catalytic domain (amino acids 1-321) (human)
[2] = target: T4, wild-type PTP1B catalytic domain (amino acids 1-321) (human)
[3] = target: T5, R24M PTP1B catalytic domain (amino acids 1-321) (human)
[4] = target: T4, wild-type PTP1B catalytic domain (amino acids 1-321) (human); remark: listed apart in the source
[5] = target: T6, HePTP (aa 22-335), GST fusion (human)
[6] = target: T7, PTP-PEST catalytic domain (aa 5-300), GST fusion (human)

Row | Molecule | KM, steady-state dephosphorylation of the pY peptide [1] [µM] | KM, steady-state dephosphorylation of the pY peptide [2] [µM] | KM, steady-state dephosphorylation of the pY peptide [3] [µM] | other results
1 | DHTGFLpTEpY^187VATRW [reference compound] |  |  |  | kcat/KM (HePTP): 4800 M⁻¹ s⁻¹
2 | WDEDFpYDWEF |  |  |  | Km (SHP-1): 3.2 ± 0.3 µM; kcat (SHP-1): 75 ± 2 ^c s^−1; kcat/KM x10^6 (SHP-1): 23 ^c x10^6 M^−1 s^−1; Km (TCPTP): 0.31 ± 0.01 µM; kcat (TCPTP): 9.0 ± 0.4 s⁻¹; kcat/KM x10^6 (TCPTP): 29 x10^6 M^−1 s^−1; Km (SHP-2): 6.3 ± 0.4 µM; kcat (SHP-2): 43 ± 1 ^c s^−1; kcat/KM x10^6 (SHP-2): 6.8 ^c x10^6 M^−1 s^−1
3 | phospho-ERK2 protein: phosphorylated ERK2 protein, HePTP substrate recruited via KIM domain |  |  |  | rate of dephosphorylation at the same site (pY187) (HePTP): 2.6 × 10^6 M^−1 s^−1
4 | B1 | 9.5 | 1.3 | 1.9 | 
5 | B2 | 10 | 3 | 8.7 | 
6 | B3 | 23 | 7.1 | 71 | 
7 | B4 | 32 | 1.8 | 3.8 | KM, steady-state dephosphorylation of the pY peptide [4]: 1.9 µM
8 | B5 | 56 | 3.5 | 37 | 
9 | B6 | 12 | 2.2 | 6.4 | 
10 | B7 | 11 | 2.6 | 6.9 | 
11 | B8 |  |  |  | KM, steady-state dephosphorylation of the pY peptide [5]: 280 µM; KM, steady-state dephosphorylation of the pY peptide [6]: 2.2 µM
12 | B9 |  |  |  | KM, steady-state dephosphorylation of the pY peptide [6]: 800 µM
13 | B10 |  |  |  | kcat/KM, steady-state dephosphorylation of the pY peptide (KM not given) [6]: 1500 M⁻¹ s⁻¹
